Experimental data from US9377466B2, “Compounds and methods” (Modpro AB, priority 2010, dated 2016).
Read-outs that look alike come from different tables or passages of the source. Ends that are not written are not given here.

Tests used:
thymidine kinase (TK) [1] = experiment: Fluorescence binding studies with TK; details: 2 μM peptide, one and two equivalents of TK
Method: Estimating that at least 60% of the peptides were then bearing the ligand, the solution was diluted to 2 μM concentration and the protein TK was added. The fluorescence response was screened after 15 min, 45 min, 2 hrs, and 20 hrs. A maximal response was seen after 2 hours of incubation time.
A NUNC™ polystyrene 384 well plate (100 μl-volume) and pipette-tips were coated with Pluronic® overnight, then washed with H2O and dried. The fluorescence-measurement was carried out in Tris-buffers (Buffer for TK-studies: 20 mM Tris/HCl, 0.4 M NaCl, 0.3 M imidazole, 2 mM DTT, 50% glycerol, pH 7.6). Assuming that at least 60% of the dT-binder was conjugated to the polypeptides (see 0), stock-solutions were prepared with a concentration of 60 μM. The concentration of the TK stock solution was 0.10 mM. A polypeptide concentration of 2 μM in […] was used. The protein was added to wells containing the peptide conjugates to give final TK concentrations of 2 or 4 μM. Fluorescence intensities of protein-binder mixtures were compared to intensities of binders without protein and a significant change in fluorescence intensity in the presence of one equivalent of protein, in comparison to that of binder without protein, was interpreted as complexation of target protein by the binder. Binders showing a change in intensity in the presence of 2 μM protein but no further change in intensity in the presence of 4 μM protein were considered “hits”.
The dansyl probe was excited at 335 nm and emission was recorded 420-600 nm. All measurements were performed at room temperature and were made in triplicates. The wells were read after 15 min, 45 min and 2 hours.

thymidine kinase (TK) [2] = experiment: Binding studies with TK in the presence of ATP (fluorescence, MALDI-TOF); details: for binding affinity to TK (in words): 1, 2 and 3 eq. TK, buffer with and without ATP; for time after which peptide is fully phosphorylated (MALDI-TOF): TK, buffer with ATP
Method: The fluorescence intensities were measured in presence of 1, 2 and 3 eq. TK in buffer with and without ATP. The introduction of ATP represents a realistic measurement situation as it is present in biological samples and is likely to react with the probe in the presence of TK. Data were collected 15 min, 45 min and 2 hrs after adding the enzyme. The samples for MALDI-TOF were collected appr. 5 mins, 45 mins and 2 hours after adding the enzyme to measure the change in masses.

[3] = CD spectroscopy, mean residue ellipticity of the sixteen scaffold polypeptides; type: physicochemical; details: error ±1000; for [θ]222 at high concentration: high concentration 30-230 μM as listed per peptide; for [θ]222 at low concentration: low concentration 1-5 μM as listed per peptide
Method: The mean residue ellipticities at 222 nm, [θ]222, □ of the sixteen scaffold polypeptides were recorded at two concentrations, approximately 30 μM and approximately 1 μM, to characterize the state of aggregation, cf.
The degree of helix formation is related to the monomer-dimer equilibrium since monomers are unordered with low helical content whereas dimers are highly helical. […] While the ^1H NMR spectra have not been recorded of all sequences and of all polypeptide conjugates, it is likely that the sequences presented here are best described as molten globules.

HCAI = molecular target: T1, HCAI (Homo sapiens, UniProt P00915); details: literature, read-out: dissociation constant Kd for HCAI, cited from earlier work
T1 construct: purchased Sigma
T1 sequence (P00915 whole entry): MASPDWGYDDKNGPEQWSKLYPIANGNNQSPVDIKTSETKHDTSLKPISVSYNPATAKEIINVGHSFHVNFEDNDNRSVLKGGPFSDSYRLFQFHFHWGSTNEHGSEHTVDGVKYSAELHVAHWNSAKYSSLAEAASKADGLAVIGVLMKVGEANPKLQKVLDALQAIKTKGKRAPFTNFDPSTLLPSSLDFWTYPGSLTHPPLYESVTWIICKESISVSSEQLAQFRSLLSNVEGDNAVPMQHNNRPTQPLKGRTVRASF

| Substance | [θ]222 at high concentration [3] [deg cm^2 dmol^−1] | [θ]222 at low concentration [3] [deg cm^2 dmol^−1] | also measured |
| --- | --- | --- | --- |
| 4-C15L8-dT: polypeptide 4-C15L8 conjugated to deoxy-thymidine (dT) probe 19 (NAADLEAKIRHLREKLAARGPRDAAQLAEQLARRFERFARAG; also: conjugated to deoxy-thymidine (dT) probe 19, site not given here) |  |  | classification in fluorescence screen (thymidine kinase (TK) [1]): not considered to be tight binders |
| 4-C10L17-dT: polypeptide 4-C10L17 conjugated to deoxy-thymidine (dT) probe 19 (NAADLEARIKHLRERLKARGPRDAAQLAEQLARAFERFARAG; also: conjugated to deoxy-thymidine (dT) probe 19, site not given here) |  |  | binding affinity to TK (in words) (thymidine kinase (TK) [2]): strong binding affinity; time after which peptide is fully phosphorylated (MALDI-TOF) (thymidine kinase (TK) [2]): 45 min |
| 2-C15L8: SEQ ID NO: 2 NEADLEAKIRHLAEKLAARGPVDAAQLAEQLARAFEAFARAG | −24900 | −20800 |  |
| 3-C10L17: SEQ ID NO: 7 NAADLEARIKHLAERLKARGPVDAAQLAEQLARAFEAFARAG | −22400 | −20700 |  |
| 2-C37L34-dT: polypeptide 2-C37L34 conjugated to deoxy-thymidine (dT) probe 19 (NAADLEAAIRHLAERLAARGPVDAAQLAEQLAAKFEKFARAG; also: conjugated to deoxy-thymidine (dT) probe 19, site not given here) |  |  | classification in fluorescence screen (thymidine kinase (TK) [1]): not considered to be tight binders |
| 3-C15L8: SEQ ID NO: 3 NAADLEAKIRHLAEKLAARGPVDAAQLAEQLARRFEAFARAG | −23400 | −19700 |  |
| 4-C25L22-dT: polypeptide 4-C25L22 conjugated to deoxy-thymidine (dT) probe 19 (NAADLEARIRHLRERLAARGPKDAKQLAEQLARAFERFARAG; also: conjugated to deoxy-thymidine (dT) probe 19, site not given here) |  |  | classification in fluorescence screen (thymidine kinase (TK) [1]): not considered to be tight binders; binding affinity to TK (in words) (thymidine kinase (TK) [2]): generally good binding affinity; time after which peptide is fully phosphorylated (MALDI-TOF) (thymidine kinase (TK) [2]): 5 to 10 min |
| 3-C15L8-dT: polypeptide 3-C15L8 conjugated to deoxy-thymidine (dT) probe 19 (NAADLEAKIRHLAEKLAARGPVDAAQLAEQLARRFEAFARAG; also: conjugated to deoxy-thymidine (dT) probe 19, site not given here) |  |  | binding affinity to TK (in words) (thymidine kinase (TK) [2]): good but not as good as for 4-C10L17-dT; time after which peptide is fully phosphorylated (MALDI-TOF) (thymidine kinase (TK) [2]): 45 min |
| 1-C25L22: SEQ ID NO: 9 NEADLEAAIRHLAEALEARGPKDAKQLAEQLARAFEAFERAG | −24800 | −18000 |  |
| 4-C25L22: SEQ ID NO: 12 NAADLEARIRHLRERLAARGPKDAKQLAEQLARAFERFARAG | −23700 | −18200 |  |
| 3-C37L34: SEQ ID NO: 15 NAADLEAAIRHLAERLAARGPVDAAQLAEQLARKFEKFARAG | −22500 | −22200 |  |
| 3-C10L17-dT: polypeptide 3-C10L17 conjugated to deoxy-thymidine (dT) probe 19 (NAADLEARIKHLAERLKARGPVDAAQLAEQLARAFEAFARAG; also: conjugated to deoxy-thymidine (dT) probe 19, site not given here) |  |  | classification in fluorescence screen (thymidine kinase (TK) [1]): not considered to be tight binders |
| 3-C25L22: SEQ ID NO: 11 NAADLEAAIRHLAERLAARGPKDAKQLAEQLARAFEAFARAG | −26400 | −23000 |  |
| 2-C25L22: SEQ ID NO: 10 NEADLEAAIRHLAEALAARGPKDAKQLAEQLARAFEAFARAG | −25000 | −24800 |  |
| 1-C10L17: SEQ ID NO: 5 NAADLEAAIKHLAEALKERGPEDCEQLAEQLARAFEAFARAG | −18200 | −11800 |  |
| 4-C15L8: SEQ ID NO: 4 NAADLEAKIRHLREKLAARGPRDAAQLAEQLARRFERFARAG | −22000 | −15300 |  |
| 1-C15L8: SEQ ID NO: 1 NEADLEAKIRHLAEKLEARGPEDAEQLAEQLARAFEAFARAG | −17800 | −25100 |  |
| 4-C37L34: SEQ ID NO: 16 NAADLEARIRHLRERLAARGPRDAAQLAEQLARKFEKFARAG | −19600 | −14900 |  |
| 2-C37L34: SEQ ID NO: 14 NAADLEAAIRHLAERLAARGPVDAAQLAEQLAAKFEKFARAG | −23900 | −30300 |  |
| 2-C10L17: SEQ ID NO: 6 NAADLEAAIKHLAEALKARGPVDAAQLAEQLARAFEAFARAG | −23400 | −20400 |  |
| benzenesulphonamidecarboxylic acid |  |  | Kd (HCAI; listed as benzenesulphonamide): 1000 to 4000 nM; Kd (HCAI): 1100 to 3900 nM |
